1 substance from paper PMC11808123 can be followed below.

Assay [1] addresses Recombinant CDK2 (human, full length), biotinylated (human) (UniProt P24941). As to the kind of experiment: BLI; no drug. Conditions: domain or fragment. Background: BLI is a label-free optical method that tracks binding on a fibre tip over time.
The target is the same in assay [2]. As to the kind of experiment: BLI; with 100 nM INX-315. Conditions: domain or fragment.

By Kd is commonly meant the equilibrium constant for the complex coming apart. A word on the koff: it is a measure of how fast the partners let go of each other. In the case of “Recombinant cyclin A (human Cyclin A, residues 173-465)”, in assay [1], the Kd was found to be 0.57 nM and the koff amounted to 0.00011 s⁻¹. In assay [2], the Kd was determined as 0.24 nM and the koff was found to be 5e-05 s⁻¹.
